Results from patent US20140234903.

T1: N-terminally His6-tagged PoyA (polytheonamide precursor peptide)
T1 chain: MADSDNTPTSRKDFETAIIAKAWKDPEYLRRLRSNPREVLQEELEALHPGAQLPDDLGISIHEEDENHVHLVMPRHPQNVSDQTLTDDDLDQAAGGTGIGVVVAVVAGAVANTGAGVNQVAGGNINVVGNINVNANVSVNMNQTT

T2: Nhis-PoyA121 (truncated variant of PoyA, residues 1-121, with the first 24 core amino acids)
T2 chain: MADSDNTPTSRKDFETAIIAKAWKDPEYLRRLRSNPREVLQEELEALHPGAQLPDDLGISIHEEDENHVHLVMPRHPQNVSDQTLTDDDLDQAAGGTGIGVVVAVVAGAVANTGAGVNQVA

B1: PoyF (LanM, N-terminal dehydratase domain) (protein)
chain: MMSSSSSREGDALAHAADPTRSIADDITCGLDSLGGPPTVCDAEHPVPFEELWLGFVAHAARALEPLIAPSLHAAVLHDPHGPLRSLLIELAEMGAPAAFELFALYRIREASAASVFGSVRGVESRDTYNAFVKHLATQQLSPLWDAFPALKPLLATRTNLFIAAMAELCQRWEADHVEIMSVFPELRGIGAPQRIRPGLSDAHGGGRTVTRLSFAGGEALFYKPRPVDMEWGCAQFVEWFNGQDHGMPPLRALSVLPRTDYGWMEAARPALCTHVDAVARFYHRAGMLLALADLFCGVDFHSENLIASGEYPVIVDLETLFHPLGPFESQGDALERTELLPRPIYCEDGAPYVICGLGVVPGKAVIELRRRGWININCDNMASCDVTVPWPVGGAVPRNKEGAAPSIATWSGEIVSGFSAMHVFFRTRRNELWSADGPIVQAFGGGRSRFLLRATRIYVELLRRAVQPQALAAHASSSHIFDRLARTGRGWDEIHRVERQALDRMDVPYFTMETTAQFVRGEGRTIHAFFATSGLHMARRRSEFIDDVILNDRAASIRNVLEQSSYSGEATLPDSRVQTDAGAGA
B2: PoyE (SAM-dependent methyltransferase (nucleophilic)) (protein)
chain: MTPRSLPTEPLAAPAAAALDAALRLLKEYLDDIGYHGIYKYLATANYYAASPSVFNASRPQSLEAFDRQIHEGPDDWMLARCLTTCAPCRLEALPPPARRVAEVLADVGLLVWNGNTLEQGGYQLISVFDRYILLDARIHFGGSQLHDVYIGPDSHLLLYYMPVEAIRPADHILDLCTGTGVIGLGLSRFSEHVVSTDIAPPALRLAHMNRALNNAEGRVSIRAENLQETLASDECFDLIACNPPYVAAPPELPTPLYAQGPDRDGLGYLRLLMERAPEKLNPGGQAMFVVDLIGDTHRPYYFDDLERIAKEQELFIEAFIDNRLKADGQLPAYKFLYARLFHGTPPEEIEQRMRNFIFDELHAYYYYMTTLRVRRRKPSGLRVLDRYRITSYDEFFQQS

How the values were obtained:
[1] = target: T1, N-terminally His6-tagged PoyA …
[2] = target: T2, Nhis-PoyA121 (truncated variant of …)

| Protein | mass shift of PoyA (ESI-MS) on co-expression; modified residue by LC/MS/MS [1] | methylation of the C-terminal tryptic peptide 76-121 (LC-ESI/ECD-MS/MS) [2] | number of methylations on PoyA (MS, +14 mass units each) [1] |
| --- | --- | --- | --- |
| B1 | produced PoyA with a mass 18 Da less than expected (observed 17090 Da, calculated 17108 Da | – | – |
| B2 | – | Near quantitative monomethylation was observed in this sample, with no evidence of multiple methylation. ECD fragmentation located the site of methylation exclusively to Asn112 (in full-length PoyA numbering) | a suite of peptides increasing by 14 mass units (0 to 8 modifications) |
